The assay deals with human ROR1 extracellular domain-Fc fusion (human) (UniProt Q01973). As to the kind of experiment: SPR, hROR1 ECD-Fc on chip. Background: SPR reads the build-up and loss of mass on a sensor chip optically.

Where a chain is given by its changes, count along the chain named.

B1: D3 ADV1 dimer (VNAR, part only; not given: Linker between the domains, not shown: small tags and cut ends)
chain, part: ASVNQSPSSLSASVGDRVTITCVLTDTSYGLYSTSWFRKNPGTTDWERMSIGGRYSESVNKGAKSFTLTISSLQPEDSATYYCKAQSGMAISTGSGHGYNWYDGAGTKVEIKASVNQSPSSLSASVGDRVTITCVLTDTSYGLYSTSWFRKNPGTTDWERMSIGGRYSESVNKGAKSFTLTISSLQPEDSATYYCKAQSGMAISTGSGHGYNWYDGAGTKVEIKQASGAHHHHHHGAEFEQKLISEEDLG
For B1, the Kd (usually the concentration at which binding is half-saturated) was 8.92 nM; the koff (in general, the first-order rate constant of dissociation) amounted to 0.00567 s⁻¹; the kon (in general, the rate constant with which the complex forms) turned out to be 636000 M⁻¹ s⁻¹.

B2: D3 ADV2 dimer (VNAR, part only; not given: Linker between the domains, not shown: small tags and cut ends)
chain, part: B1 chain, part with A1T, S2R, N4D, A113T, S114R, N116D
The molecule B2 displayed a Kd of 26.2 nM, a koff of 0.016 s⁻¹ and an on-rate constant (kon) of 609000 M⁻¹ s⁻¹.
